This is an account of results in US20220204643A1 (published 2022).

The target in test [1] is T1, family with sequence similarity 177 member A1, transcript variant 2 (human, UniProt Q8N128 1-213).
T1 construct: HuProt array protein, full-length recombinant from yeast; also called FAM177A1
T1 sequence: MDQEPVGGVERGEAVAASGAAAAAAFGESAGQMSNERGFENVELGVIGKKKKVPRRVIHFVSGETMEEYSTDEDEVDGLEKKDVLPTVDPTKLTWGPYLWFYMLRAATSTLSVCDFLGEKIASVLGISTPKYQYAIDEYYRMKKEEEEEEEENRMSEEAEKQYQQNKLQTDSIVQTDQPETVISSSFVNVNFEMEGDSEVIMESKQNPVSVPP

Test [2] deals with T2, ubiquilin 1, transcript variant 2 (human, UniProt Q9UMX0 2-589).
T2 construct: HuProt array protein, full-length recombinant from yeast; also called UBQLN1

A further test concerns the target T3, ubiquilin 2 (human, UniProt Q9UHD9 2-624).
T3 construct: HuProt array protein, full-length recombinant from yeast; also called UBQLN2

The target in the next test is T4, Ubiquilin 3 (human, UniProt Q9H347 1-655).
T4 construct: HuProt array protein, full-length recombinant from yeast; also called UBQLN3
T4 sequence: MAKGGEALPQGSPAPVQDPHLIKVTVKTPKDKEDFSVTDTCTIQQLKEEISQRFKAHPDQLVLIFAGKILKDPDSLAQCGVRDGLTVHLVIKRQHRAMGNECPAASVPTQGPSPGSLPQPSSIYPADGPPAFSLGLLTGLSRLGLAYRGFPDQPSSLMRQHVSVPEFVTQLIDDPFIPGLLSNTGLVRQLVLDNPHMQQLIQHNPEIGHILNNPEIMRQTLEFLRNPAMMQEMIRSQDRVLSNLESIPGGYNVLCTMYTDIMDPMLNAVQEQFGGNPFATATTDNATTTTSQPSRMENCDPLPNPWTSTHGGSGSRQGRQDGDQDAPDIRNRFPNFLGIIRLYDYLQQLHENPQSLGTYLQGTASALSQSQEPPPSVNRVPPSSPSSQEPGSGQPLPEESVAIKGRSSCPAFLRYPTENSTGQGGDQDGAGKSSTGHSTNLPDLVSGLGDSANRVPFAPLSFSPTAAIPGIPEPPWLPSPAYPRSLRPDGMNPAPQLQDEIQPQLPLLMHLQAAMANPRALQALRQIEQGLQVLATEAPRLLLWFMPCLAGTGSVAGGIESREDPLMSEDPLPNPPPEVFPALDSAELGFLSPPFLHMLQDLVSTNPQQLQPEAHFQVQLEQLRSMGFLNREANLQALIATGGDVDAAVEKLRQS

Test [3] concerns the target T5, hydroxymethylbilane synthase, transcript variant X3 (human, UniProt P08397 18-361).
T5 construct: HuProt array protein, full-length recombinant from yeast; also called HMBS
T5 sequence: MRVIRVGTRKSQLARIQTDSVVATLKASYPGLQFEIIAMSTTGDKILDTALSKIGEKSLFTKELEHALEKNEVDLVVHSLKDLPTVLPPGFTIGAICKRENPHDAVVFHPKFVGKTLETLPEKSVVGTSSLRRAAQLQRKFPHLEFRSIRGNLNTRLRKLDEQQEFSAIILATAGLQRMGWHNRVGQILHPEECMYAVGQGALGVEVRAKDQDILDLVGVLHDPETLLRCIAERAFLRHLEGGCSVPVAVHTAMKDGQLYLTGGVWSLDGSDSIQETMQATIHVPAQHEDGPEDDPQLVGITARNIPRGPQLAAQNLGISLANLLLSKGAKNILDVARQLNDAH

In test [4] the target is T6, hook microtubule tethering protein 2, transcript variant 2 (human, UniProt Q96ED9 1-719).
T6 construct: HuProt array protein, full-length recombinant from yeast; also called HOOK2
T6 sequence: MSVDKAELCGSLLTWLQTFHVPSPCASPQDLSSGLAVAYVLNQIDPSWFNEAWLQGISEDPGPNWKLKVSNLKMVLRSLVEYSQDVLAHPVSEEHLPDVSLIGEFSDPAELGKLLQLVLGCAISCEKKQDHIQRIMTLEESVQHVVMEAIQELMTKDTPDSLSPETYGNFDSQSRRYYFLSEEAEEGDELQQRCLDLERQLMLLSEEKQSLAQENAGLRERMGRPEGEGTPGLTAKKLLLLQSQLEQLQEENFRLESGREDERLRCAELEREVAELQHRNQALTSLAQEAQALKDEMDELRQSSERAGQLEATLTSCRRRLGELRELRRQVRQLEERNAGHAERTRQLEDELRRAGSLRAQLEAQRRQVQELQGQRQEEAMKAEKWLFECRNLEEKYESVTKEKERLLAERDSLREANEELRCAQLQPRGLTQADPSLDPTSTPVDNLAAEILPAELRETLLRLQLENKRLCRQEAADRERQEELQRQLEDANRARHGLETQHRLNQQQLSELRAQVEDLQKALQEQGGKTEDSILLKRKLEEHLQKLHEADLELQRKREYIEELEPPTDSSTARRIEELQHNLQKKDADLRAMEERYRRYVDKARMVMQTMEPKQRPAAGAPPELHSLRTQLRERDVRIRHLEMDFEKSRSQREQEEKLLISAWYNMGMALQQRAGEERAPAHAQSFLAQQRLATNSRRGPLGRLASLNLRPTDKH

Test [5] has as its target T7, methyltransferase like 21C (human, UniProt Q5VZV1 1-264).
T7 construct: HuProt array protein, full-length recombinant from yeast; also called METTL21C

The target of test [6] is T8, Killer cell lectin like receptor g2 (human, UniProt A4D1S0 1-409).
T8 construct: HuProt array protein, full-length recombinant from yeast; also called KLRG2
T8 sequence: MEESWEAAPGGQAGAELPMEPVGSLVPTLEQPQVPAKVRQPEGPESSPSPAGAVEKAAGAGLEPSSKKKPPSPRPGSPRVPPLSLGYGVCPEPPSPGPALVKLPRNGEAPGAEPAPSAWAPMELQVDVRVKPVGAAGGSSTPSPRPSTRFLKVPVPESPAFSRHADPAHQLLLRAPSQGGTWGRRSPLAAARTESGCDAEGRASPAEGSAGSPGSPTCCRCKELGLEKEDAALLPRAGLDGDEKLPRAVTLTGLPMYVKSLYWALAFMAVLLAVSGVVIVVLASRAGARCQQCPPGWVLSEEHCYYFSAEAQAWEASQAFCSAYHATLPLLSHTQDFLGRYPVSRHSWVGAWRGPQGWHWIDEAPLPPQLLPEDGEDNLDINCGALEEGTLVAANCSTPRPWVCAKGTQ

The target in test [7] is T9, tripartite motif containing 35, transcript variant 1 (human, UniProt Q9UPQ4 1-493).
T9 construct: HuProt array protein, full-length recombinant from yeast; also called TRIM35
T9 sequence: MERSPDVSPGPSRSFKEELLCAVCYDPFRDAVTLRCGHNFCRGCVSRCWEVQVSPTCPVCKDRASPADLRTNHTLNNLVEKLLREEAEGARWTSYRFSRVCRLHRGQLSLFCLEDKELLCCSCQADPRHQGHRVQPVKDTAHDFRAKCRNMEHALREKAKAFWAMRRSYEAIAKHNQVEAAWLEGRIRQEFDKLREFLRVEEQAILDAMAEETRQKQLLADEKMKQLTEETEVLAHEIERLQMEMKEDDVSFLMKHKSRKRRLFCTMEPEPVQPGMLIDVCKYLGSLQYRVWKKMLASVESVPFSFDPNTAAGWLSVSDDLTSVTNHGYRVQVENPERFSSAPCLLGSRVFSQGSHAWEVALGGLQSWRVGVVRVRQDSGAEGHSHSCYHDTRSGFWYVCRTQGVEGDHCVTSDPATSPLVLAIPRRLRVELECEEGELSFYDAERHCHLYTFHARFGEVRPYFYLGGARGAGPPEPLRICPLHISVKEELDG

The target of a further test is T10, FMR1 autosomal homolog 2 (human, UniProt P51116 1-673).
T10 construct: HuProt array protein, full-length recombinant from yeast; also called FXR2

For another test, the target named is T11, annexin A1 (human, UniProt P04083 2-346).
T11 construct: HuProt array protein, full-length recombinant from yeast; printed 'annexin Al'; also called ANXA1
T11 sequence: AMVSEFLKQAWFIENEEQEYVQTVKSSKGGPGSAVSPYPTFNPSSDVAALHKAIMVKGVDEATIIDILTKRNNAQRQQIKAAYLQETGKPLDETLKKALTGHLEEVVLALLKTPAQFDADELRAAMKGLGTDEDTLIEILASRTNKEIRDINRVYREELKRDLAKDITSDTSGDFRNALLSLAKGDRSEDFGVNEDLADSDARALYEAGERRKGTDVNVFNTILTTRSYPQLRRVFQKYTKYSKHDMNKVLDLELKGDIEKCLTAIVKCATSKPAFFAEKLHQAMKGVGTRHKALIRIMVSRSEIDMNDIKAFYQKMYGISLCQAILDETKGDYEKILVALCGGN

Test [8] concerns the target T12, RAN binding protein 10, transcript variant 1 (human, UniProt Q6VN20 2-620).
T12 construct: HuProt array protein, full-length recombinant from yeast; also called RANBP10

T10 sequence (P51116 whole entry Q252H): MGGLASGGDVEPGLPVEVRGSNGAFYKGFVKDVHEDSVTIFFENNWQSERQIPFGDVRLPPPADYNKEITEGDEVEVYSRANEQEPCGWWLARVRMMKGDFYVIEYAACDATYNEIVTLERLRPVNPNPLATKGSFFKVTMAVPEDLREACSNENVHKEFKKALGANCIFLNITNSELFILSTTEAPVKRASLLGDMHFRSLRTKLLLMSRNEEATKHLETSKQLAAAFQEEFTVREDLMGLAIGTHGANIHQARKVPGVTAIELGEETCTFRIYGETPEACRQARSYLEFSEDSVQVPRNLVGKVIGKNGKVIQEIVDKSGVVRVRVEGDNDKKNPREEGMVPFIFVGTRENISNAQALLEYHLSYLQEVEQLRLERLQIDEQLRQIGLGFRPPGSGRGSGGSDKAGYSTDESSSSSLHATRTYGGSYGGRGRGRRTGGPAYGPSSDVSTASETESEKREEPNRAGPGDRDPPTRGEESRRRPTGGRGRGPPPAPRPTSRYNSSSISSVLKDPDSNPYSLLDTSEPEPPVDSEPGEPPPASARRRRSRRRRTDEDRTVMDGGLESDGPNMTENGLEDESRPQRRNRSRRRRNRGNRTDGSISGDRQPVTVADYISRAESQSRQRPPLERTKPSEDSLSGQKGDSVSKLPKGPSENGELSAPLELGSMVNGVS
T12 sequence (Q6VN20 2-620 limits assumed, change not shown): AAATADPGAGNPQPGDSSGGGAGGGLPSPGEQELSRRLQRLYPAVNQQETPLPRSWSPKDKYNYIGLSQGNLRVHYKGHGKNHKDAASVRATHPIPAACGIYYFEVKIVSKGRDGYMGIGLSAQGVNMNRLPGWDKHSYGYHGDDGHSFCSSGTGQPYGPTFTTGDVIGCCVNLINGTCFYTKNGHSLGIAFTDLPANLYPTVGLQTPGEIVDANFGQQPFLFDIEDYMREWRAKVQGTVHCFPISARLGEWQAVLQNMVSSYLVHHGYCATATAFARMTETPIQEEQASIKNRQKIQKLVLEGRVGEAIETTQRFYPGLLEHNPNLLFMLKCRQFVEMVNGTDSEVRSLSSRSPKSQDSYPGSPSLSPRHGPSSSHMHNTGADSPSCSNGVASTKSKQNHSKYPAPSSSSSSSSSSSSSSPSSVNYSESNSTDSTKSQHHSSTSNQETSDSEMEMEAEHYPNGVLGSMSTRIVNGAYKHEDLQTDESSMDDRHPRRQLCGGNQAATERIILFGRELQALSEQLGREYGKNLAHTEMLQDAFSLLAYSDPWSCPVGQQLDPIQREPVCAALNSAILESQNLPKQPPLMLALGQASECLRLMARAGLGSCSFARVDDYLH
T2 sequence (Q9UMX0 other isoform, or with tags, fused parts or gaps mutant limits assumed): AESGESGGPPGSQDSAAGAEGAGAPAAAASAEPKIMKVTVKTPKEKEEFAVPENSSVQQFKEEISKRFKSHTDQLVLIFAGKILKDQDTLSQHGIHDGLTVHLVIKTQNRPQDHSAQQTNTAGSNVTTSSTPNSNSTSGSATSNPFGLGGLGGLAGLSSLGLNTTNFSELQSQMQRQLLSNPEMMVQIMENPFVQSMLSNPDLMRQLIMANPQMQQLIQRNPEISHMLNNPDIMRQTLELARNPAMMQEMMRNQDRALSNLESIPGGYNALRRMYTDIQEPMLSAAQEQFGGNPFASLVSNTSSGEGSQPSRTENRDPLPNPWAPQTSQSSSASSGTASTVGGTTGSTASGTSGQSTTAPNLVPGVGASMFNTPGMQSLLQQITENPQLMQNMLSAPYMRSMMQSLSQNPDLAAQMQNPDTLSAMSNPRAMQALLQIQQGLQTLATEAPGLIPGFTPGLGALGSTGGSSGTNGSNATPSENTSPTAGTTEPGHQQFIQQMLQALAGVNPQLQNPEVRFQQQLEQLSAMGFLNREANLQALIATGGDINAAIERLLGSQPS
T7 sequence (Q5VZV1 whole entry): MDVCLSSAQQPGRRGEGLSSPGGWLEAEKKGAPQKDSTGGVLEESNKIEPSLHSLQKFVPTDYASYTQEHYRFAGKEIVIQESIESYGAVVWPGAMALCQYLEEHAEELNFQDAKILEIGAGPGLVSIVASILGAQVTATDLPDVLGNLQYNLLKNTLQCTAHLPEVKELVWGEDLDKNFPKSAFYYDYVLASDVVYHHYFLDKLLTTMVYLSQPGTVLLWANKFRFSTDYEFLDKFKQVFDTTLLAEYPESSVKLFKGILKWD
T3 sequence (Q9UHD9 2-624 limits assumed): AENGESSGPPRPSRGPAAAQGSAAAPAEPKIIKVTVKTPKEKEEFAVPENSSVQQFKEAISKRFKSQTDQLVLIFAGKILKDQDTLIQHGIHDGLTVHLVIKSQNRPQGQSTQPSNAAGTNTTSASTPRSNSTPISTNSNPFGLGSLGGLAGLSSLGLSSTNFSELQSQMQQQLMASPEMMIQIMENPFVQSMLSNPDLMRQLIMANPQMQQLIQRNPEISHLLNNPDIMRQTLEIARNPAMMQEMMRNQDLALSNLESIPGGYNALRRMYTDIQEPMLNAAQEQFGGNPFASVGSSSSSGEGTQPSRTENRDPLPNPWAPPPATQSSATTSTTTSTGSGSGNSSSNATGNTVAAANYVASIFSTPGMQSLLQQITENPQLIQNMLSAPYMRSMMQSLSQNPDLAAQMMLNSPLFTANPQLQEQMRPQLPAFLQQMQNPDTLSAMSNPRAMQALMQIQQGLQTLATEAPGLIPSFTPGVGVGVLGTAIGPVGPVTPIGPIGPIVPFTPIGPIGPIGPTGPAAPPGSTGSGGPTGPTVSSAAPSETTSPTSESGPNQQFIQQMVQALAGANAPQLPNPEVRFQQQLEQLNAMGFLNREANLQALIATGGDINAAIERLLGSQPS

B1: TLUA1016 (antibody, V domains shown)
VH: EVQLLESGGALVQPGGSLRLSCAVSGLTFNRFAMTWVRQAPGKGLEWVSHIGGSGGYTYYADSVKGRFTISRDNSKNTLYLQMNSLRAEDTAVYHCVKLKGIGAMWTYAMDVWGQGTTVTVSS
VL: QSVLTQPPSVSGAPGQRVTIPCTGSSSNLGAGYAVHWYQQLPATTPKLLIYANSSRPSGVPDRFSGSRSDTSASLAITGLQAEDEADYYCQSYDSSLSGYVFGTGTWVTVLS
notes: detected with anti-human IgG Fc
On to B1, for which the binding result in test [1] is on record as “binds”.

B2: TMEL1018 (antibody, V domains shown)
VH: PLQLQESGPGLVKPSETLSLTCTVSGGSISSSSYYWGWIRQPPGKGLEWIGSIYYSGSTYYNPSLKSRVTISVDTSKNQFSLKLSSVTAADTAVYSCARLLVGGAFDIWGQGTMVTVSS
VL: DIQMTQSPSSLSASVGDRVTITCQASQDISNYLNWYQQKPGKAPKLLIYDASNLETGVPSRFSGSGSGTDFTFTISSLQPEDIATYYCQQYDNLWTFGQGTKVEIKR
notes: as for B1
Regarding B2, the binding result (in test [2]; in the test with ubiquilin 2; in the test with Ubiquilin 3) was “binds” each time.

B3: TLUS1006 (antibody, V domains shown)
VH: PVHLVQSGAEVRKPGSSVKVSCMASGGSFNTYAVNWVRQAPGQGLEWMGGIIPVFGTTNYAPRFQGRVTITADESTSTVYMELTSLTSEDTAVYYCARDRDSGYERNCLDPWGQGTLVTVSS
VL: DIVMTQSPDSLAVTLGERATINCRSSQTVLYDSNNKNYLAWYQQKPGQPPKLLIYWASIRESGVPDRFSGSGSGTDFTLTINTLQAEDVAIYFCQQYFTTPRTFGQGTKVEIKR
notes: as for B1
Regarding B3, the binding result in [3] and in test [4] was “binds” in each case.

B4: TLUS1003 (antibody, V domains shown)
VH: QVHLVQSGSEFKKPGASVKISCKTSGYTFTNYAMNWVRQAPGQGLEWVGWINTVTGIPGYAQGFTGRFIISLDTSGRTSYLQINSLQAEDTAVYYCARSGGFGWSRDLDYWGQGTLVTVSS
VL: DIVLTQSPLSLPVTPGEPASISCRSSQSLLHSNGVYYLDWYLLKPGQSPQLVIYMGSSRASGVPDRFSGSGSGTDFRLKISRVEAEDVGIYYCMQALQTPWTFGQGTKVEIKR
notes: as for B1
In the case of B4, in test [5], the binding result is on record as “binds”.

B5: TLUA1001 (antibody, V domains shown)
VH: PLQLQESGPGLVKPSETLSLTCSVSGGSIRSSAPFWGWIRQPPGKGLEWIGNIYYNGDTSYSPSLENRVTLFVDTSKNQFSLNLTSVTAADTAVYYCGRIMTPSIDLWGQGKLVTVSS
VL: EIVLTQSPGTLSLSPGERATLSCRASQSISSTYLVWYQQKPGQAPRLLIYAASYRATGIPDRFSGSGSGTDFILTISRLEPEDFAVYYCQQYGSSLTFGGGTKVEIKR
notes: as for B1
With B5, the binding result (in [6]; in [7]; with FMR1 autosomal homolog 2) was “binds” throughout.

B6: TLUA1004 (antibody, V domains shown)
VH: EVQLVESGGGLVQTGGSLRLSCSASGFTFNNYWMHWVRQAPGKGLLWLSRINTDGSRGHYDDSVQGRFTISRDNAKQTVYLQMDGLRAEDTAVYFCARDGYDFRAFDHWGQGVLVTVSS
VL: DIQMTQSPSSLSASVGDKVTMTCRASQFISVYVNWYQQKPGKAPKLLIYTASSLESGVSSRFSGGGSGTDFTLTIRSLQPEDFAIYYCQQTYSTPWTFGPGTRVEIKR
notes: as for B1
On to B6, for which the binding result with annexin A1 was “binds”.

B7: TMEL1017 (antibody, V domains shown)
VH: EVQLVESGGGLVKPGGSLRLSCAASGFTFSNYNMNWVRQAPGKGLEWVSSISSSSSYIYYADSVKGRFTISRDNAKNSLYLQMNSLRAEDTAVYYCARDALDFDWLLSAGGFDYWGQGTLVTVSS
VL: ASALTQPASVSGSPGQSITISCTGTSSDVGGYNYVSWYQQHPGKAPKLMIYEVSNRPSGVSNRFSGSKSGNTASLTISGLQAEDEADYYCSSYTSSSTLVFGGGTKLTVLG
notes: as for B1
In the case of B7, in [8], the binding result is “binds”.
